Test results from article PMC1635293.
Where two headings read alike, the source gives them in different places.

How the values were obtained:
Assay in all cases: competition
[1] = molecular target: T1, Exportin-5 (hsExp5);hsRanQ69L (GTP form) (human;human, UniProt Q9HAV4;P62826 1-1204;1-216, |Q69L)
[2] = molecular target: Exportin-5 (dmExp5);dmRanQ69L (GTP form) (Drosophila melanogaster?;Drosophila, UniProt Q9BP41;Q9VZ23 1-1241;1-216, |Q69L)
[3] = molecular target: T2, Msn5p (yeast exportin-5 orthologue);Gsp1pQ71L (GTP form) (budding yeast;yeast, UniProt P52918;P32835 1-1224;1-219, |Q71L)
[4] = molecular target: T2, Msn5p (yeast exportin-5 …); remark: listed apart in the source
[5] = molecular target: T1, Exportin-5 (hsExp5);hsRanQ69L (GTP form); remark: listed apart in the source

T1 sequence (Q9HAV4 whole entry Q69L, one chain of several): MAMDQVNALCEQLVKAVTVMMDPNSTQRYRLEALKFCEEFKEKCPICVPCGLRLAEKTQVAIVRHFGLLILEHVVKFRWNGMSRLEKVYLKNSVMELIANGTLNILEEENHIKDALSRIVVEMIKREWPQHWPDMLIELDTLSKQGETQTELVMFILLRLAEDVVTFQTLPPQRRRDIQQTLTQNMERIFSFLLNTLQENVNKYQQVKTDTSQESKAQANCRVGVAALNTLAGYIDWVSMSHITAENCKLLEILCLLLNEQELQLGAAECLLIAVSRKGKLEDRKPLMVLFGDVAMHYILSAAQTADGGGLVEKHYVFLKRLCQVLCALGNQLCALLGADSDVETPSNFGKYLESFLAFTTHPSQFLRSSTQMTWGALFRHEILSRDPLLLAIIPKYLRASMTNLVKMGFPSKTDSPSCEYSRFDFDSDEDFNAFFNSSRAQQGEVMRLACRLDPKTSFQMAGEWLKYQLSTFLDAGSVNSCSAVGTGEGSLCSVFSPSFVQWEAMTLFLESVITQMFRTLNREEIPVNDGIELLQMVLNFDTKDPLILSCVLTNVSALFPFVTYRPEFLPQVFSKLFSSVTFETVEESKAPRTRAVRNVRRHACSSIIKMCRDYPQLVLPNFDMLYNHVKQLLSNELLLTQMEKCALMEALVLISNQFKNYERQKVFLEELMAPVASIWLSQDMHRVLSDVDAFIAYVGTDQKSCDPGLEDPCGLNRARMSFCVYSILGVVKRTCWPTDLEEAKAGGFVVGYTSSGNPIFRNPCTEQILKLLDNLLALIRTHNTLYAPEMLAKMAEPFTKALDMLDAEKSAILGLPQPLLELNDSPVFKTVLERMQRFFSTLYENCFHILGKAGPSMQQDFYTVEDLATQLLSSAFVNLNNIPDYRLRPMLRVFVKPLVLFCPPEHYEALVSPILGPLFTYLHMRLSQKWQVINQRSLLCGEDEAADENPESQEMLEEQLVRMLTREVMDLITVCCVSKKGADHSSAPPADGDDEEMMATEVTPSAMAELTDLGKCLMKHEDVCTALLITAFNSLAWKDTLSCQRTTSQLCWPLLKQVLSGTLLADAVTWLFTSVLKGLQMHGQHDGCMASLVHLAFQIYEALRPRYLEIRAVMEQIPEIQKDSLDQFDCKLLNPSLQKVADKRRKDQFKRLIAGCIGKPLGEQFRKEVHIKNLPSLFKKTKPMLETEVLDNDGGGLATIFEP

| Binder | binding result [1] | binding result [2] | binding result [3] | binding result [4] | binding result [5] |
| --- | --- | --- | --- | --- | --- |
| dsRNA with 2 nt 3' overhang (22 bp dsRNA) (dsRNA) RNA 1: GGGCUUUCAGUCGGAUGUUUGCAGC RNA 2: UGCAAACAUCCGACUGAAAGC | binds | binds | – | – | – |
| dsDNA encoding the same sequence as the dsRNA (dsDNA) DNA 1: GGGCTTTCAGTCGGATGTTTGCAGC DNA 2: TGCAAACATCCGACTGAAAGC | no binding | no binding | no binding | – | – |
| dsRNA with 2 nt 5' overhang (dsRNA) RNA 1: GGGCUUUCAGUCGGAUGUUUG RNA 2: UGCAAACAUCCGACUGAAAGC | – | – | – | no binding | no binding |
